Assay: label from the status in PepcDB records
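Further: failed if final PepcDB status was selected cloned or expressed and not failed if soluble or beyond.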

Row | Sequence | protein production
1 | MIGLMIRVAGQLGRYARLLPATAGMVLVLQVAAQADVLTINGGAKFTNYPMVTLGINAALHGGTVQAMRFSIDDSTWTDWEPVAASKRFKLTEPLSLSFYDVFLQFQQDGVAVPDPPYPAAIVYDDLIDTGFFGGQGVALLGGTGSDRGKGVVVQPDGKLLVVGTVEQAAGNTDIVLWRLTAQGEPDTGFGVQGSVVIDAGTADRAAGVALQGDGKILVLGTVGSATTAWEVRRYDSAGVLDTSFGTGGKYQEGASGANEAGNLLVQPDGRIVIIGSRDVAGAKKIQVIRLTATGVLDSAFNGNTGYYRPNLPGNSFGNGVALQADGKILLVGTYANPSGETDLFVQRLKTDGTLDNFNDGLNNFFMAGDAGNDEGLGIAVQPDGKIVVVGAYQWGAGDTDIWVLRLNENGTRDNDFNAPVGDYKDGDVYNDRAEALVIQPDGKIVVVGSFGYATDTDILVFRLNADGTTDNTIYNFYGFYTINSGDDEGQGVALQPDGNIVLVSTFTREEGDTDIHVHRIFGRKETLSVSTTGGGSVADDLGAFTWVDLSGEGDYLQGDSVALTAAPATGYVFTGWGGDCAGTSPVCTVTMDGAKNVTASFSLDRPAAPTGLSGVPGNGTAGISWTASQESGITGYKVYYGITSGNYATPDPVGTTPAHVISGLMNGVTYYIAVSVLKNGVEGPKSAEITVTPGINLSVTVVGTGGGTVSSAPGGISCLDGSGCSAVFNAAPVVLSATPSAGSIFAGWSGACSGTDGCTVTQYGPVAVTATFTKMPPVKLTAGTTSYYSTIAEAYAACIGGTSCTIETQATELAGNVTLANAIAVLFKGGYDATFSSSPGLTTLQGVVTVGRGSLTAQNVVIR | failed
2 | MTVSDPAGPRCFCRDCLVDLDMGVRRCSACGSPRLVRHRALSSLTIAHIDCDAFYATVEKRDNPDIADKPVIIGGGKRGVVSAACYIARTYGVRSAMPMFKALDACPHAIVIRPDMAKYVRVGREVRQAMQALTPLVEPLSIDEAFLDLSGTERVHGMIPAKVLARFARNIERDIGISVSVGLSCNKFLAKIASDLDKPRGFAALDQEEARLMLASRPVGFIFGVGPATQERLVQRGFRIIADLQKADEIEMMRQFPSDGRRLWRLARGIDDRRVEPDRGAKTISSETTFETDIRDFATLEKILWRLCEKTSSRLKSSELAGSTVTLKLKTADFRQRTRSQSIAAPTQLAAKIFSICREMLAKEIDGTAFRLMGAGVSALREGSPADDTDMLDRRAAHAERAVDSLRKKFGNSAVIRGIAYDGPETGQQE | failed
3 | MMRRYFYQFSQKMITSVWWLLFVPMLLFAVMSPNIILGDNATFGTSTTLLTTGLIIVIVAVLIMNYAYPRVHRGLYRLLITKQLRTAGVLLALVFIGQLVFVTFVHPVSGFDAGMLHYAATSAKHVQEVGVTAYYSLNQNNMPIMLFMHWLSEVTGQTSWQFFDYVTLFFVDLSAAFNLMSVFVVRRSALGIAMYLHAGWLAVFPSIIMPYTDAWGLPLVSFFMLCYFVMSQTKRPPLLRVAAAVGFGVSVTLTYFMKPSSIIPVIAIAIISFLARLRSRQGSQTTMIFVTVAMAILMLESAGLTYHYTNQAIQNQTYIKIDKSRSIPAIHFMAMGVYGSGGYSEKQAIQMAVLPTKAQKTAYSIKMLKRQLKKLGPWGYLEFLVKKQRNNTADGTFGWLKEGNFFRENQKPSNQGFSNWLKNFIYLYGRHIADFRFVAQLWWLVLLVIIALGFGPRWQLIQLLRLAMIGGFIFLLLFEGGRSRYLIQYLPCLLLLGAFSFERAVANIRRVRDWYQRKLRAAIAADESE | failed
4 | MSLTDEPKLLAEPREGVPNVIDTLPAFRDYCSELASSHGSLAADAERASGFRYGHEDWLVQFKRDGAGIGLLDPQALAAAGADWNDFNRAVGDAVWILHDSLQDLPGFDELGMEPQRLFDTEIAARLLGLKRFGLAAVTEHFLGLTLAKEHSAADWSYRPLPRDWRNYAALDVELLIELETKMRAELKRQGKMEWAQEEFDYALKEGLGPRKEHLIPWMHVSHITEVMRDRQALAIVRALWTRRDELAREYDIAPTLLLSDSSIIEVAKRKPHNAAQFRSIRSINERVRIHTDSEQDKMFERYAPIQRKIKPSMWKNIIQDALALPPSEWPDVDGGAARRHESQSASAPKSIRVWKERYPERLQVLNRVRKAVSQIAEDTRTPVEIVIKPQYLRNLCWTDEPRKRDVARFLSEQGARDWQVSLVAESVSRAIEGHHHHHH | not failed
5 | MEKRLDYITDLMALGPTANARTIQRRQTAHRLAIAEAWQVKPGEKILEIGCGQGDLSAVLADQVGSSGHVTGIDIASPDYGAPLTLGQAWNHLLAGPLGDRLTVHFNTNLSDDLGPIADQHFDRVVLAHSLWYFASANALALLFKNMAAVCDHVDVAEWSMQPTALDQIGHLQAAMIQGLLYAIAPSDVANIRTLITPDTLAQIAHDNTWTYTAGTIVEDPTLDDAHWEIATTNALLTELKLSTDLRDRVKPLLEAMSHNGTASLATFTGRITF | not failed

From a protein production outcome set (Wang et al. 2014)
